Data: patent US20250215091A1, “Anti-GAL3 Antibodies and Compositions” (Les Laboratoires Servier, priority 2022, published 2025)

B1: D11: anti-Gal3 monoclonal antibody, IgG1 format; VH SEQ ID NO 40, VL SEQ ID NO 41 (antibody, V domains shown)
VH: EVQLVESGGSLVKPGGSLRLSCAASGFTFSNYNMNWVRQAPGKGLEWISSIYGSSRYIYYADFVKGRFTISRDNAKNSLYLQMNSLRAEDTAVYYCVRSSYGGMDVWGRGTLVTVSS
VL: QSVLTQPASVSGSPGQSITISCAGTSSDVGGSYNVAWYQQHPGKAPKLMIYYDSYRPSGVSNRFSGSKSGNTASLTISGLQAEDEADYYCSSYTGYSTRVFGGGTKLEIK
modifications: IgG1 constant region

Legend:
[1] = tested on: murine model of HOCI-induced fibrosis; experiment: HOCI-induced murine fibrosis model: skin thickness; assay type: in vivo, mice; conditions: first experiment; for HOCI-induced increase in skin thickness: 42 days, antibody 20 mg/kg s.c., TD139 0.5 mg/kg intratracheal, vs HOCI group, FIG. 7A
Experimental: (§1) In a first experiment, control mice (n=12) received a daily intradermal injection of 300 μL of sterile phosphate buffer saline (PBS) for 5 consecutive days per week, for a duration of 42 days. HOCI alone and HOCI with antibody (HOCI-antibody) treated mice (n=12 per group) received a daily intradermal injection of 300 μL of HOCI for 5 consecutive days per week, for a duration of 42 days. Antibody-treated mice also received a subcutaneous injection of 20 mg/kg antibody, starting at day minus one and every 5 days between day 5 and day 40. Each antibody was solubilized in sterile, endotoxin-free PBS before injection. In a second experiment, the same protocol was applied, except that duration of the study was 63 days and antibodies were given every 7 days starting at day minus 1 until day 62.
(§2) Mice that received daily injection of HOCI were also treated by intratracheal instillation of 0.5 mg/kg of TD139 compound (HOCI-TD139), a small molecule Gal3 inhibitor. In a first experiment, the administrations started from day 21 and the compound was given every 3 days until day 39. In a second experiment, the administrations started from day 20 and the compound was given every 3 days until day 62. TD139 was initially dissolved in 100% DMSO then diluted 50-fold in endotoxin-free PBS before administration.
The evolution of skin thickness was monitored by using an external caliper, every seven days until sacrifice.

[2] = tested on: murine model of HOCI-induced fibrosis; experiment: HOCI-induced murine fibrosis model: skin and lung collagen (Picrosirius red); assay type: in vivo, mice; conditions: first experiment; for lung collagen levels: day 42, FIG. 8A; for skin collagen levels: day 42, vs HOCI group, FIG. 8B
Experimental: as §1, §2
At the day of study termination of the first experiment (day 42), skin and lung samples were taken, formalin-fixed and processed to individual paraffin wax blocks. Sections of skin and lung were cut from the blocks and, after rehydration, stained with Picrosirius Red coloration according to the manufacturer's protocol. Subsequently, each slide was examined and remotely analyzed employing the web-based Image J software

plasma IL-6 = experiment: HOCI-induced murine fibrosis model: plasma IL-6 (MSD); assay type: in vivo, mice; conditions: first experiment, day 42; vs HOCI group; FIG. 9
Experimental: as §1, §2
(§3) In the first experiment, a mixed effect model with repeated measurements was performed on Control group, HOCI treated group, HOCI-antibody- and HOCI-TD139-treated groups. The impact of HOCI administration on plasma IL-6 and IL-5 levels was evaluated compared to the control group. The impact of antibody and TD139 treatments was compared to the HOCI group (FIG. 9). IL-6 and IL-5 were quantified by using the MSD technology from Mesoscale.

plasma IL-5 = experiment: HOCI-induced murine fibrosis model: plasma IL-5 (MSD); assay type: in vivo, mice; conditions: first experiment, day 42; vs HOCI group; FIG. 9
Experimental: as §1, §2, §3

plasma Gal3 = experiment: HOCI-induced murine fibrosis model: plasma Gal3 (ELISA); assay type: in vivo, mice; conditions: first experiment, day 42; FIG. 10
Experimental: as §1, §2
In the first experiment, the plasma levels of Gal3 were measured at day minus 1 (before antibody administration) and at termination day (day 42) using a mouse Galectin-3 DuoSet ELISA kit (R&D Systems, DY1197) according to the manufacturer's instructions. Plasma samples were diluted 1:200 in order to fit with the dynamic range of the assay.

[3] = tested on: genes differentially regulated between HOCI group and control group in whole blood cells; experiment: HOCI-induced murine fibrosis model: whole blood RNA sequencing; assay type: in vivo, mice; conditions: of 510 genes differentially regulated HOCI vs control; day 42, whole blood
Experimental: as §1, §2
In the first experiment, global gene expression was examined at day 42 in whole blood cells by RNA sequencing.
Whole blood was collected in RNA protect tubes (Qiagen) and were processed for RNA extraction using the RNeasy Protect Animal blood kit with the optional on-column DNAse I digestion. Total RNA samples were quantified on Nanodrop 2000 (ThermoFisher Scientific™) and analyzed on Bioanalyzer (Agilent) using RNA 6000 Nano chips to determine RNA quality (RIN). Total RNA matching the QC criteria were included in the study. Purified RNA samples were used as input for the TruSeq Strand-specific RNA-seq (poly A selection and globin depletion) according to manufacturer's protocol (Illumina). […]
Raw reads were processed using the in-house RNAExp Expression pipeline 2.1 and the quality was assessed using FastQC tools. Then, reads were trimmed for adaptors using Cutadapt and trimmed reads were aligned to mouse mm39 reference genome using the STAR aligner. Aligned data were evaluated for quality using Samtools and Picard tools. Then, aligned reads per gene were quantified using FeatureCount. […] Read count were normalized by the variance stabilizing transformation vst function from DESeq2 R package.
55,416 genes were detected in the data. […] Genes differentially expressed between groups were determined using a linear model (ImFit function from limma R package) on vst transformation gene expression dataset. […]

[4] = tested on: murine model of bleomycin-induced fibrosis; experiment: Bleomycin-induced murine lung fibrosis model: body weight and body weight metrics; assay type: in vivo, mice; conditions: for reduction of median Time to baseline (TTB): median TTB 20 days for untreated bleomycin group; for reduction of median Time to baseline (TTB) / reduction of median Time to weight growth (TWG): FIG. 13; for reduction of median Time to weight growth (TWG): median TWG 10 days for untreated bleomycin group; for mean percent weight increase on day 21 compared to day minus 1: untreated bleomycin group +1.9%, control mice 6.4%
Experimental: (§4) Control bleomycin mice named ‘Bleo’ received an administration of 1.65 mg/kg bleomycin by the oropharyngeal route on Day 1. […] Antibody-treated mice also received an administration of 1.65 mg/kg bleomycin by the oropharyngeal route on Day 1 and a subcutaneous injection of 20 mg/kg antibody, starting on day minus one and on days 4, 8, 12, 16 and 20. Each antibody was solubilized in sterile, endotoxin-free PBS before injection. Mice that received bleomycin were also treated by oropharyngeal administration of 0.5 mg/kg of TD139 compound (Bleo-TD139), a small molecule Gal3 inhibitor, starting on day 12 and every 2 days until day 20. TD139 was initially dissolved in 100% DMSO.
Mice were weighed daily. Their growth curves are represented on FIG. 12. Control mice had normal growth with a mean percent increase of 6.4% of their initial body weight measured on day minus 1.
Body weight metrics were assessed by using two parameters called Time to weight growth (TWG) and Time to baseline (TTB), shown on FIG. 13. Time to weight growth corresponds to the point of inflection when mice show an ascending growth curve and start to regain weight within the course of the experiment. Time to baseline corresponds to the number of days required for mice to recover their initial body weight (day minus 1). The median TWG was 10 days for the untreated bleomycin group. […] TD139 compound had no efficacy on this parameter (p-value 0.53).

[5] = tested on: murine model of bleomycin-induced fibrosis; experiment: Bleomycin-induced murine lung fibrosis model: Modified Ashcroft fibrosis score; assay type: in vivo, mice
Experimental: as §4
Mice were submitted for terminal euthanasia on day 21. The lungs were collected for histopathological examination and gravity inflation-fixed with 10% neutral buffered formalin (NBF) before being immersion fixed in NBF.
Sections were taken and then placed on three slides as indicated by the code numbers on FIG. 14.
Three longitudinal sections parallel to and bisecting the main stem bronchus were trimmed from the left lung and right caudal lung lobes and mounted in cassettes 01 and 02, respectively. The right cranial, middle and accessory lung lobes were sectioned longitudinally and mounted in cassette 03. All sections were stained with picrosirius red and scored in a blinded manner by a certified veterinary pathologist using the Modified Ashcroft fibrosis score (0-8), where “0” corresponds to “normality (no fibrosis) and “8” corresponds to the highest possible fibrosis score, as described by Hübner et al. (2008) but based on assessment across the whole section of lung.

rat model of ARDS [6] = experiment: Rat ARDS model (LPS challenge): neutrophils counts in BALF; assay type: in vivo; conditions: antibodies 14 mg/kg x3 prior to LPS; dexamethasone 10 mg/kg oral; vs LPS group; FIG. 16
Experimental: (§5) Positive control rats received 3 doses of sterile phosphate buffer at day minus 11, minus 6 and minus 1 prior LPS challenge (0.25 mg/kg by subcutaneous route at day 1). Negative control rats received one oral dose of Dexamethasone at 10 mg/kg (dissolved in 0.5% carboxymethyl cellulose in deionized water) 2 hours prior LPS challenge (0.25 mg/kg by subcutaneous route at day 1). LPS (lipopolysaccharide) causes an acute inflammatory response, whereas dexamethasone has anti-inflammatory effects thus being the reference treatment in this model.
(§6) Antibody-treated rats received 3 doses of antibodies (14 mg/kg) at day minus 11, minus 6 and minus 1 prior to LPS challenge (0.25 mg/kg by subcutaneous route at day 1). Each antibody was solubilized in sterile PBS before injection.
(§7) Control rats of the experiment received 3 doses of sterile phosphate buffer at day minus 11, minus 6 and minus 1 without LPS challenge at day 1.
(§8) The impact of anti-Gal3 antibody treatment in LPS challenged rats were evaluated by quantification of neutrophils in Bronchoalveolar Lavage Fluid and compared to the positive control group (LPS challenge with PBS treatment) (FIG. 16). […] Neutrophils numeration levels were decreased after treatment with anti-inflammatory dexamethasone.

rat model of ARDS [7] = experiment: Rat ARDS model (LPS challenge): total BALF protein (BCA assay); assay type: in vivo; conditions: antibodies 14 mg/kg x3 prior to LPS; dexamethasone 10 mg/kg oral; vs LPS group; FIG. 17
Experimental: as §5, §6, §7
as §8, with “proteins (by BCA assay)” for “neutrophils”, “BALF” for “Bronchoalveolar Lavage Fluid”, “17). The presence of protein in BALF reflects the damage to the air-blood barrier.” for “16).”, “Total BALF protein” for “Neutrophils”

plasma TNF alpha = experiment: Rat ARDS model (LPS challenge): plasma TNF alpha (MSD); assay type: in vivo; conditions: 4 h following LPS challenge; vs LPS group; FIG. 18
Experimental: as §5, §6, §7
For all rats, plasma sampling was performed 4 h following LPS challenge.
The impact of anti-Gal3 antibody treatment in LPS challenged rats were evaluated on plasma cytokine levels, namely TNF alpha and KC-GRO cytokines, and compared to the positive control group (LPS challenge with PBS treatment) (respectively FIG. 18A and FIG. 18B). TNF alpha and KC-GRO were quantified by using the MSD technology from Mesoscale.

Molecule	HOCI-induced increase in skin thickness [1]	lung collagen levels [2]	skin collagen levels [2]	plasma IL-6 levels (plasma IL-6)	plasma IL-5 levels (plasma IL-5)	plasma Gal3 levels (plasma Gal3)	reduction of median Time to baseline (TTB) [4]	reduction of median Time to weight growth (TWG) [4]	mean percent weight increase on day 21 compared to day minus 1 [4] [%]	further results
OC[C@H]1O[C@@H](S[C@@H]2O[C@H](CO)[C@H](O)[C@H](n3cc(-c4cccc(F)c4)nn3)[C@H]2O)[C@H](O)[C@@H](n2cc(-c3cccc(F)c3)nn2)[C@H]1O [TD139, reference compound]	lower decrease in skin thickness than with either antibody, reaching statistical significance only at days 28 and 42	restored lung collagen levels to those of control mice	significantly reduced	no activity	decreased significantly	restored the plasma Gal3 levels to values similar to those of the control group	no efficacy	no efficacy	2.9	number of HOCI-dysregulated genes counteracted by treatment [3]: 7 genes; percentage of HOCI-dysregulated genes counteracted by treatment [3]: 1.37%; mice having a lung fibrosis score of 2 and 3 ([5]; day 21): 50.6%; mice having a lung fibrosis score of 4 and 5 ([5]; day 21, 49.3% for untreated bleomycin group): 49.4%; attenuation of lung fibrosis (overall) ([5]; day 21, FIG. 15): did not show any sign of anti-fibrotic efficacy
B1	significantly reduced	restored lung collagen levels to those of control mice	significantly reduced	significantly decreased the plasma IL-6 levels to values similar to those of control mice	decreased significantly	restored the plasma Gal3 levels to values similar to those of the control group	2.7 days	1.3 days	4.4	day from which reduction of skin thickness was significant ([1]; sustained effect until day 42): 21 days; frequency of animals with fibrosis score of 2 ([5]; day 21, 7.4% in untreated bleomycin group): 17.8%; frequency of animals with fibrosis score of 3 ([5]; day 21, 43.2% for bleo group): 61.1%; frequency of animals with fibrosis score of 4 ([5]; day 21, 44.4% in bleo group): 20%; neutrophils counts in BALF (rat model of ARDS [6]): also decreased; total BALF protein (rat model of ARDS [7]): also decreased; TNF alpha plasma levels (plasma TNF alpha): also decreased, displaying an intermediary profile
